These results are taken from publication PMC11046646, “Tight-packing of large pilin subunits provides distinct structural and mechanical properties for the Myxococcus xanthus type IVa pilus” (Proceedings of the National Academy of Sciences of the …, 2024).

The series deals with the molecule itself. The experiment in a line: cryo-EM structure; T4aP^Mx filaments purified from the hyperpiliated ΔpilT strain; helical reconstruction, twist 100.7°, rise 10 Å per subunit, 3.0 Å.

B1: major pilin PilA of Myxococcus xanthus (mature PilA, MXAN_5783) (natural protein, UniProt Q59589 13-220, looked up)
chain: FTLIELMIVVAIIGILAAIAIPNFIKFQARSKQSEAKTNLKALYTAQKSFFSEKDRYSDFANEIGFAPERGNRYGYRVSAAAGDCEVRNAADLPVPAAGVPCISNDSFRFGANSAIDDPTPVVARFVPQGAAGWNTTLGVQPTIADCPNCNFFAGARGNADNEATFDDWVIAGFEGSGQVGPCSEAGNVASGTPYNTRNDVACDGAAQ
notes: PilA, major type IVa pilin of Myxococcus xanthus, MXAN_5783; mature pilin of 208 aa after removal of the type III signal peptide by PilD; numbers count on: the mature protein; Assembled as the T4aP filament of thousands of copies; Disulfide bridges C95/C102 and C183/C203; the authors speculate that surface-exposed C150 is post-translationally modified; also called PilA^WT; Mx PilA; source: …
For the protein B1, the binding result is “binds”.
